The target of this experiment is HA-SFPQ (human) (UniProt P23246). In words: co-IP.
HA-SFPQ (human), sequence (P23246 whole entry): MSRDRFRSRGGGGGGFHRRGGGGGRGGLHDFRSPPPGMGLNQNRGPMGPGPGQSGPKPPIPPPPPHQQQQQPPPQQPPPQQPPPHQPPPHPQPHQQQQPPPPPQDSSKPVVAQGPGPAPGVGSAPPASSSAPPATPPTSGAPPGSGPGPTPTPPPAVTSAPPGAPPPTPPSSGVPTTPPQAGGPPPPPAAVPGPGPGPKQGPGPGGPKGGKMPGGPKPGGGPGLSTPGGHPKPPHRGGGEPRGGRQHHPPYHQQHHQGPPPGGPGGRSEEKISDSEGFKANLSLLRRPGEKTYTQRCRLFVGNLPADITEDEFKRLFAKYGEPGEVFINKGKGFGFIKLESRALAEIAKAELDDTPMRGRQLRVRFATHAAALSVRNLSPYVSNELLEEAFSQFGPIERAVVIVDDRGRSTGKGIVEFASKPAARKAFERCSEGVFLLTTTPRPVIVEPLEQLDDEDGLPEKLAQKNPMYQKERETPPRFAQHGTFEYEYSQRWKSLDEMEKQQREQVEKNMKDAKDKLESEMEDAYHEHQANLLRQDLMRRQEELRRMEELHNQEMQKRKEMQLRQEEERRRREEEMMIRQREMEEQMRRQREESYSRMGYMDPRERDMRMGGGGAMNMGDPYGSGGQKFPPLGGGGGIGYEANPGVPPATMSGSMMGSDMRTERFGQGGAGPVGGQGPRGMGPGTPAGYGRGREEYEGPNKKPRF

Myc-KLC1 ΔTail (domain or fragment), sequence (O88447 whole entry, stated change not applied, the tested form may be a part): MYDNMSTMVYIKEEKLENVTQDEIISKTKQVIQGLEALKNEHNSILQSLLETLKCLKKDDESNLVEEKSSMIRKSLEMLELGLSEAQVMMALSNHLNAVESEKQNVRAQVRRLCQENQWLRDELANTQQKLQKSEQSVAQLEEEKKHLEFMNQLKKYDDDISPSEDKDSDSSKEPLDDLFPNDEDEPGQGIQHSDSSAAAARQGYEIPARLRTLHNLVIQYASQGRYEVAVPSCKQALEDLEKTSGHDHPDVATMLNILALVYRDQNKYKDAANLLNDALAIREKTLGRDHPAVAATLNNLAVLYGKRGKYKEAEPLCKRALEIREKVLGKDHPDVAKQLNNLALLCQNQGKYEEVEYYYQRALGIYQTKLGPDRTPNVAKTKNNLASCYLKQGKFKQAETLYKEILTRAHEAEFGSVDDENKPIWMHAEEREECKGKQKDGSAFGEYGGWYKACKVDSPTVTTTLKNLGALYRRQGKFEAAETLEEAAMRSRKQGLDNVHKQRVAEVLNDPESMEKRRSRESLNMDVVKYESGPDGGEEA

In the case of Myc-KLC1 ΔTail (domain or fragment), the reduction of binding against WT KLC1 was determined as 50%.

The values above are taken from paper doi:10.1101/2020.02.02.931204.
